Laboratory results taken from patent US20220194983A1 (Bicycle, published 2022).
Numbered stars: 1 amine (or outer) side, 2 acyl side, 3 side chain; on linkers, the order of the positions; unused ones are H or OH. Bridge positions count the residues as written; N and C are the ends. Square brackets hold non-standard residues; d marks the D form. Ends that are not written are not given here. TBMB = c1c(C[*:1])cc(C[*:3])cc1C[*:2]; Dap(Me) = CNC[C@H](N)C(=O)O

Experiments:
[1] = molecular target: T1, prostate-specific membrane antigen (PSMA) (human, UniProt Q04609 44-750, limits assumed); test: cell-based or functional assay
[2] = molecular target: T1, prostate-specific membrane antigen …; test: fluorescence polarization, FP (h)
[3] = molecular target: T1, prostate-specific membrane antigen …; test: fluorescence polarization binding assay
Description: PSMA binding was measured using the fluorescence polarization assay methodology described in Shen et al (2013) PLOS ONE 8(7), e68339 and PSMA enzyme inhibition was measured using the methodology described in WO 2009/070302.

T1 sequence (Q04609 44-750 limits assumed): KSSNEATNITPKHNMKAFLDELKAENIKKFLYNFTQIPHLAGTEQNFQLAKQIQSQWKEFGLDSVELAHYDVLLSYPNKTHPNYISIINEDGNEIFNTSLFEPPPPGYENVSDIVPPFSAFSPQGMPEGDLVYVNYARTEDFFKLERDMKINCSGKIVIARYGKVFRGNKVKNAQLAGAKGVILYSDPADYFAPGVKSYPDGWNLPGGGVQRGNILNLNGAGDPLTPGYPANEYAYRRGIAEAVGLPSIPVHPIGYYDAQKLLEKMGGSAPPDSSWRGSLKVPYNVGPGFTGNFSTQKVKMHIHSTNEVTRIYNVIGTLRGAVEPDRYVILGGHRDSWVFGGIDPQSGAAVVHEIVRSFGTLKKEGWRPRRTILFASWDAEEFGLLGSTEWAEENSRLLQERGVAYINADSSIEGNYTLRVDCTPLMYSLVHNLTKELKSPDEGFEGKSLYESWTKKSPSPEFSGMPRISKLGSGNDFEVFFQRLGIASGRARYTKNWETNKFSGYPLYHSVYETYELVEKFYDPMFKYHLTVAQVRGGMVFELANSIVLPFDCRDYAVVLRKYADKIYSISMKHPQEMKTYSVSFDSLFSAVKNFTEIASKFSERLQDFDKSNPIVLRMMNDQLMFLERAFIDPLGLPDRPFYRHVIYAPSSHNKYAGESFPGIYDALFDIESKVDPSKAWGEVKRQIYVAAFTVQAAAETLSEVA

| Binder | Enzyme inhibition IC50 [1] | Ki [2] | Ki [3] |
| --- | --- | --- | --- |
| ACMVCHMMEDGTCA (linker 2-5-13 via TBMB) [21-31-N002] | 0.695 µM | 0.04 µM |  |
| EVCWDCFMMEDGTCA (linker 3-6-14 via TBMB, Bicyclic peptide on TBMB scaffold, all thioether) [21-31-04-T01-N001] |  |  | 0.003 µM |
| EVCWD[Dap(Me)]FMMEDGT[Dap(Me)]A (linker 3-6-14 via TBMB, Bicyclic peptide on TBMB scaffold) [21-31-04-T01-N017] |  |  | 0.7 µM |
| CIECYIMEDGTCA (linker 1-4-12 via TBMB) [21-31-01-N001] |  | 0.07 µM |  |
| EVCWDCFMMEDGTCAXXXXXXK (N-terminal acetyl; D-Glu at 1; Cys 3, 6 and 14 joined by thioether linkages to TBMB scaffold; X16-X21 = Sar; D-Lys at 22) [21-31-04-T01-N007] |  | 0.03 µM |  |
| FCSECYMMEDGTCA (linker 2-5-13 via TBMB) [21-31-11-T01-N001] |  | 0.006 µM |  |
